Assays:
[1] = molecular target: T1, JMJ22 (Arabidopsis (cDNA clone from the …, UniProt Q67XX3 1-502)); assay: two-hybrid; F-box proteins as GAL4-BD baits (pGBK-T7, AH109), ASK1/2 as GAL4-AD preys (pGAD-T7, Y187), mated; growth on SD-Leu-Trp-Ade-His + X-alpha-gal at 30 °C normalised to growth on SD-Leu-Trp, and beta-galactosidase activity assay (two independent assays); results told together; details: partners not purified
T1 construct: F-box protein JMJ22; CDS PCR amplified from an ABRC cDNA clone and ligated in frame to the 3' end of the GAL4-BD CDS in pGBK-T7 (bait); source: yeast two-hybrid fusion
T1 sequence (looked up): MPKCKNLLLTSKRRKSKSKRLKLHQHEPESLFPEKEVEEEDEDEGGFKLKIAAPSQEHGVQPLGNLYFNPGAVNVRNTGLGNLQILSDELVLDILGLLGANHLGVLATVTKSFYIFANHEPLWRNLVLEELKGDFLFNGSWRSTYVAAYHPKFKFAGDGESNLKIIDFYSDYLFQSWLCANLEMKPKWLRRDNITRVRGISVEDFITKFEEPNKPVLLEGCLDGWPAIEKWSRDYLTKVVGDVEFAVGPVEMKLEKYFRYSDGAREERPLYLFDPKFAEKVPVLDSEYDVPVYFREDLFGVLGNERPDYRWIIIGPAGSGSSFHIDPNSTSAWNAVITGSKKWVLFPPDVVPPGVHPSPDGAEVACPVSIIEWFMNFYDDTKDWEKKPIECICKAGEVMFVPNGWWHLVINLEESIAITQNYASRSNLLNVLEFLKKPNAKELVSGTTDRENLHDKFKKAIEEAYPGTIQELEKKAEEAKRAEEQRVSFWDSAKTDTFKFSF

[2] = molecular target: DIF (Arabidopsis (cDNA clone from the Arabidopsis Biological Resource Center)); assay: as above

fold interaction strength against ASK2 [1]: > 2 fold | fold interaction strength against ASK2 [2]: > 2 fold
B1: Arabidopsis Skp1-Like 1 (natural protein, A. thaliana, UniProt Q39255 1-160, looked up)
chain: MSAKKIVLKSSDGESFEVEEAVALESQTIAHMVEDDCVDNGVPLPNVTSKILAKVIEYCKRHVEAAASKAEAVEGAATSDDDLKAWDADFMKIDQATLFELILAANYLNIKNLLDLTCQTVADMIKGKTPEEIRTTFNIKNDFTPEEEEEVRRENQWAFE
notes: ASK1 (A. thaliana Skp1-Like 1); CDS PCR amplified from an ABRC cDNA clone and ligated in frame to the 3' end of the GAL4-AD CDS in pGAD-T7 (prey); also called ASK1; source: yeast two-hybrid fusion

Source: PMC6463862, “Adaptive and degenerative evolution of the S-Phase Kinase-Associated Protein 1-Like family in Arabidopsis thaliana” (PeerJ, 2019)
